Legend:
recombinant CD3 = recombinant CD3 (UniProt P07766 23-126; P09693 23-116); experiment: antibody as ligand, 'Human CD3 epsilon&CD3 gamma' as analyte; legend paragraph 116 says BLI, methods paragraph 422 say Biacore SPR, table in RU
[1] = biological target: T1, recombinant Siglec-15 (bispecific antibody affinity assay) (Homo sapiens (Human), UniProt Q6ZMC9 20-263, limits assumed); experiment: antibody as ligand, human Siglec15 as analyte; legend paragraph 114 says BLI, methods paragraph 422 say Biacore SPR, table in RU
T1 sequence: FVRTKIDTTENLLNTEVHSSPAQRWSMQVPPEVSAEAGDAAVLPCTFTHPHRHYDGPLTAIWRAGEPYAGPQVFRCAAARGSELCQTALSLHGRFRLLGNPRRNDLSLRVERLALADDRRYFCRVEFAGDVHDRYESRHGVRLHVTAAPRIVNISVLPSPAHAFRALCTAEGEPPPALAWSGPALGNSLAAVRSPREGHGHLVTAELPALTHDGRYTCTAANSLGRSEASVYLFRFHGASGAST

[2] = biological target: T2, human Siglec-15, full length, expressed on cells (human, UniProt Q6ZMC9 20-328); experiment: flow cytometry, HEK293T cells expressing human Siglec-15, anti-human IgG-PE, MFI
T2 construct: also called hS15; MOLM-13 Siglec-15 expressing cells
T2 sequence: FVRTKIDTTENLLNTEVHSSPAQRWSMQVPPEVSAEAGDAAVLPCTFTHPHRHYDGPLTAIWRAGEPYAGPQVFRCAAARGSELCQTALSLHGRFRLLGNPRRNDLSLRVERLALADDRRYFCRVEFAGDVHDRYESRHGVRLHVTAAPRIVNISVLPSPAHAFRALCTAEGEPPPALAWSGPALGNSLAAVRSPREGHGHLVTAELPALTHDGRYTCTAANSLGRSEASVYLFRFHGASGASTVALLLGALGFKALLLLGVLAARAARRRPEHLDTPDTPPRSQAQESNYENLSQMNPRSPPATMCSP

[3] = biological target: T3, recombinant human Siglec-15-his protein (Bonopusbio) (human, UniProt Q6ZMC9 20-263); experiment: SPR (Biacore T200), antibody on CM5 chip, Siglec-15-his as analyte
T3 construct: Bought (CW37-50 ug in the ELISA; the SPR paragraph prints CW70-50 ug); whole entry named; also called recombinant human Siglec-15 protein
T3 sequence: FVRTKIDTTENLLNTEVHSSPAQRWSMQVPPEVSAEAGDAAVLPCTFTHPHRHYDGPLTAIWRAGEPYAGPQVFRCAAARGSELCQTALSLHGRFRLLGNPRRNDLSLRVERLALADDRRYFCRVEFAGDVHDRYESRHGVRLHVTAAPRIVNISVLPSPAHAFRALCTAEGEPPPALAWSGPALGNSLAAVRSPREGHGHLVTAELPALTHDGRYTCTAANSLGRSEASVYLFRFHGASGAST

[4] = biological target: T2, human Siglec-15, full length, expressed …; experiment: IgG1 titration, flow cytometry on MOLM-13 human Siglec-15 cells
[5] = biological target: T4, mouse Siglec-15, full length, expressed on HEK293T cells (mouse); experiment: IgG1 titration, flow cytometry on HEK293T cells expressing mouse Siglec-15
T4 construct: also called mS15; HEK293T cells expressing mouse Siglec-15
T4 chain: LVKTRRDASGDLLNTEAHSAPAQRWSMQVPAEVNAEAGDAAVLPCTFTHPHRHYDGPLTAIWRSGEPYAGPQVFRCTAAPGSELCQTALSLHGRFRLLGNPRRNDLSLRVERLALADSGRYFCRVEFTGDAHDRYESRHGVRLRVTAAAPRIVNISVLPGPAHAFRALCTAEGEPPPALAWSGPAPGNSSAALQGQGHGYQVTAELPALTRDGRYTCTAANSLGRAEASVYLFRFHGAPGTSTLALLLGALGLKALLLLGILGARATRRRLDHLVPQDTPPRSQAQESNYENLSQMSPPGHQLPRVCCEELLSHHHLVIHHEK

[6] = biological target: T5, truncated human Siglec-15 comprising only domain 2 (D2), expressed on HEK293T cells (human, UniProt Q6ZMC9 168-251, limits assumed); experiment: flow cytometry, HEK293T cells expressing only domain 2 of human Siglec-15, fold change of Siglec15 gMFI relative to 2ry control
T5 construct: also called domain 2-only human Siglec-15; Siglec-15 Domain 2 (D2) HEK293T cells
T5 sequence: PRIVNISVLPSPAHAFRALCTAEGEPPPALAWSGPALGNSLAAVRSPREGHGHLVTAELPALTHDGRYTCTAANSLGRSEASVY

Chain of recombinant CD3 (P07766 23-126, form in doubt, chain 1 of 2): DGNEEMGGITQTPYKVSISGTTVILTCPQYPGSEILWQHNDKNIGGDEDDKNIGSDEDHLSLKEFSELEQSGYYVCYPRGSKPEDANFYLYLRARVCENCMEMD
Chain of recombinant CD3 (P09693 23-116, form in doubt, chain 2 of 2): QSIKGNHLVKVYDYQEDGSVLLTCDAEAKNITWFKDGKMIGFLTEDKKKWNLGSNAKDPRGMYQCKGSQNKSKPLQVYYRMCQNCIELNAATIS

Row | Binder | Kd [3] | koff [3] | kon [3] | EC50 [4] | EC50 [5] | binding result [6] | other results
1 | BsAb-2 (bispecific antibody, human IgG1, kappa, L234A L235A, 2 + 1 format; also called anti-Siglec-15/CD3 bispecific antibody, Format-2: KIH & scFv (2 + 1)) light 1: not shown heavy 1: QVQLQQSGPELVKPGASVKISCKASGYAFSSSWMNWVKQRPGKGLEWIGRIYPGHGETNYNGKFKDKATVTADKSSSTTYMQLSSLTSEDSAVYFCARVDNSDPYYFDYWGQGTTLTVSSASTKGPSVFPLAPSSKSTSGGTAALGCLVKDYFPEPVTVSWNSGALTSGVHTFPAVLQSSGLYSLSSVVTVPSSSLGTQTYICNVNHKPSNTKVDKKVEPKSCDKTHTCPPCPAPEAAGGPSVFLFPPKPKDTLMISRTPEVTCVVVDVSHEDPEVKFNWYVDGVEVHNAKTKPREEQYNSTYRVVSVLTVLHQDWLNGKEYKCKVSNKALPAPIEKTISKAKGQPREPQVCTLPPSRDELTKNQVSLSCAVKGFYPSDIAVEWESNGQPENNYKTTPPVLDSDGSFFLVSKLTVDKSRWQQGNVFSCSVMHEALHNHYTQKSLSLSPGK heavy 2: not shown light 2: not shown |  |  |  |  |  |  | Kd (recombinant CD3): 137000 pM; koff (recombinant CD3): 0.00739 s⁻¹; kon (recombinant CD3): 53800 M⁻¹ s⁻¹; Kd [1]: 170 pM; koff [1]: 0.000133 s⁻¹; kon [1]: 786000 M⁻¹ s⁻¹
2 | S15B1-VH3 + VL2 (antibody, V domains shown, Humanized S15B1; also called humanized S15B1 VH3+VL2; huS15B1) VH: QVQLVQSGAEVKKPGASVKVSCKASGYAFSSSWMNWVKQAPGQGLEWIGRIYPGHGETNYNGKFKDRATMTADTSTSTVYMELSSLRSEDTAVYFCARVDNSDPYYFDYWGQGTTVTVSS VL: DIVLTQSPASLAVSPGQRATITCRASKSVSTSGYSYMHWYQQKPGQPPKLLIYLASNLESGVPARFSGSGSGTDFTLTINPVEAEDTATYYCQHGRELPFTFGGGTKLEIK | 65.3 pM | 0.000293 s⁻¹ | 4.49e+06 M⁻¹ s⁻¹ |  |  |  | EC50 (read off the curve) [2]: ~1000 pM
3 | S15B1-VH2 + VL2 (antibody, V domains shown, Humanized S15B1; also called humanized S15B1 VH2+VL2; huS15B1) VH: QVQLVQSGAEVKKPGASVKVSCKASGYAFSSSWMNWVRQAPGQGLEWIGRIYPGHGETNYNGKFKDRVTMTADTSTSTVYMELSSLRSEDTAVYFCARVDNSDPYYFDYWGQGTTVTVSS VL: DIVLTQSPASLAVSPGQRATITCRASKSVSTSGYSYMHWYQQKPGQPPKLLIYLASNLESGVPARFSGSGSGTDFTLTINPVEAEDTATYYCQHGRELPFTFGGGTKLEIK | 94.6 pM | 0.000326 s⁻¹ | 3.44e+06 M⁻¹ s⁻¹ |  |  |  | EC50 (read off the curve) [2]: ~1000 pM
4 | S15B1-VH1 + VL1 (antibody, V domains shown, Humanized S15B1; also called humanized S15B1 VH1+VL1; huS15B1) VH: QVQLVQSGAEVKKPGASVKVSCKASGYAFSSSWMNWVRQAPGQGLEWIGRIYPGHGETNYNGKFKDRVTMTADTSTSTVYMELSSLRSEDTAVYFCARVDNSDPYYFDYWGQGTTVTVSS VL: DIVLTQSPASLAVSPGQRATITCRASKSVSTSGYSYMHWYQQKPGQPPKLLIYLASNLESGVPARFSGSGSGTDFTLTINPVEAEDTANYYCQHGRELPFTFGGGTKLEIK | 136 pM | 0.000455 s⁻¹ | 3.35e+06 M⁻¹ s⁻¹ |  |  |  | 
5 | S15B1-VH1 + VL2 (antibody, V domains shown, Humanized S15B1; also called humanized S15B1 VH1+VL2; huS15B1) VH: QVQLVQSGAEVKKPGASVKVSCKASGYAFSSSWMNWVRQAPGQGLEWIGRIYPGHGETNYNGKFKDRVTMTADTSTSTVYMELSSLRSEDTAVYFCARVDNSDPYYFDYWGQGTTVTVSS VL: DIVLTQSPASLAVSPGQRATITCRASKSVSTSGYSYMHWYQQKPGQPPKLLIYLASNLESGVPARFSGSGSGTDFTLTINPVEAEDTATYYCQHGRELPFTFGGGTKLEIK | 159 pM | 0.000563 s⁻¹ | 3.54e+06 M⁻¹ s⁻¹ |  |  |  | 
6 | S15B1-VH3 + VL1 (antibody, V domains shown, Humanized S15B1; also called humanized S15B1 VH3+VL1; huS15B1) VH: QVQLVQSGAEVKKPGASVKVSCKASGYAFSSSWMNWVKQAPGQGLEWIGRIYPGHGETNYNGKFKDRATMTADTSTSTVYMELSSLRSEDTAVYFCARVDNSDPYYFDYWGQGTTVTVSS VL: DIVLTQSPASLAVSPGQRATITCRASKSVSTSGYSYMHWYQQKPGQPPKLLIYLASNLESGVPARFSGSGSGTDFTLTINPVEAEDTANYYCQHGRELPFTFGGGTKLEIK | 69 pM | 0.000257 s⁻¹ | 3.73e+06 M⁻¹ s⁻¹ |  |  |  | EC50 (read off the curve) [2]: ~1000 pM
7 | S15B1-VH4 + VL1 (antibody, V domains shown, Humanized S15B1; also called humanized S15B1 VH4+VL1; huS15B1) VH: QVQLVQSGAEVKKPGASVKVSCKASGYAFSSSWMNWVKQAPGQGLEWIGRIYPGHGETNYNGKFKDRATMTADKSTSTVYMELSSLRSEDTAVYFCARVDNSDPYYFDYWGQGTTVTVSS VL: DIVLTQSPASLAVSPGQRATITCRASKSVSTSGYSYMHWYQQKPGQPPKLLIYLASNLESGVPARFSGSGSGTDFTLTINPVEAEDTANYYCQHGRELPFTFGGGTKLEIK | 93.8 pM | 0.000385 s⁻¹ | 4.1e+06 M⁻¹ s⁻¹ |  |  |  | 
8 | S15B1-VH4 + VL2 (antibody, V domains shown, Humanized S15B1; also called humanized S15B1 VH4+VL2; huS15B1) VH: QVQLVQSGAEVKKPGASVKVSCKASGYAFSSSWMNWVKQAPGQGLEWIGRIYPGHGETNYNGKFKDRATMTADKSTSTVYMELSSLRSEDTAVYFCARVDNSDPYYFDYWGQGTTVTVSS VL: DIVLTQSPASLAVSPGQRATITCRASKSVSTSGYSYMHWYQQKPGQPPKLLIYLASNLESGVPARFSGSGSGTDFTLTINPVEAEDTATYYCQHGRELPFTFGGGTKLEIK | 138 pM | 0.000234 s⁻¹ | 1.69e+06 M⁻¹ s⁻¹ |  |  |  | 
9 | ZLA-1212-B05 (antibody, V domains shown, Fully human, from phage display; also called clone ZLA-1212-B05) VH: QVQLVQSGGGVVQPGRSLRLSCAASGFTFSSYAMHWVRQAPGKGLEWVAVISYDGSNKYYADSVKGRFTISRDNSKNTLYLQMNSLRAEDTAVYYCAREGGSYYGYFDYWGQGTLVTVSS VL: QSVLTQPPSVSVAPGKTARITCGGNNIGSKSVHWYQQKPGQAPVLVIYDDSDRPSGIPERFSGSNSGNTATLTISRVEAGDEADYYCQVWDSSSDHRVFGGGTKLTVL |  |  |  | 0.215 µg/mL | 0.168 µg/mL | no binding | 
10 | ZLA-1214-B07 (antibody, V domains shown, Fully human, from phage display) VH: QVQLVQSGAEVKKPGSSVKVSCKASGGTFSSYAISWVRQAPGQGLEWMGGIIPIFGTANYAQKFQGRVTITADESTSTAYMELSSLRSEDTAVYYCARDGGRDGYNPKKILEFDYWGQGTLVTVSS VL: not shown |  |  |  | 0.133 µg/mL | 0.102 µg/mL | no binding | 
11 | ZLA-1214-D08 (antibody, V domains shown, Fully human, from phage display) VH: EVQLVQSGAEVKKPGASVKVSCKASGYTFTGYYMHWVRQAPGQGLEWMGRINPNSGGTNYAQKFQGRVTMTRDTSTSTAYMELSRLRSDDTAVYYCARVINDAFDMWGQGTMVTVSS VL: not shown |  |  |  | 0.106 µg/mL | 0.103 µg/mL | no binding | 
12 | ZLA-1243-E01 (antibody, V domains shown, Fully human, from phage display) VH: QVQLVQSGGGLVQPGRSLRLSCAASGFTFDDYAMHWVRQAPGKGLEWVSGISWNSGSIGYADSVKGRFTISRDNAKNSLYLQMNSLRAEDTALYYCAKGLWPSYDLDAFDIWGQGTMVTVSS VL: QSALTQPASVSGSPGQSITLSCTGTSSDVGAYNFVSWYQQHPGTAPKLMIYEVSNRPSGVSDRFSGSKSGNTASLTISGLQAEDEADYYCSSYTSTIPPFVFGTGTKVTVL |  |  |  | 0.174 µg/mL | 0.0849 µg/mL | no binding | 
13 | ZLA-1212-E09 (antibody, V domains shown, also called clone ZLA-1212-E09) VH: QVQLVQSGGGVVQPGRSLRLSCAASGFTFSSYGMHWVRQAPGKGLEWVAVISYDGSNKYYADSVKGRFTISRDNSKNTLYLQMNSLRAEDTAVYYCAKDDSGYYDSSGYDYWGQGTLVTVSS VL: QSVLTQPPSVSGAPGQRVTISCTGSSSNIGAGYDVHWYQQLPGTAPKLLIYGNSNRPSGVPDRFSGSKSGTSASLAITGLQAEDEADYYCQSYDSSLSGVVFGGGTKLTVL |  |  |  | 0.178 µg/mL | 0.191 µg/mL | no binding | 
14 | S15B1-VH2 + VL1 (antibody, V domains shown, Humanized S15B1; also called humanized S15B1 VH2+VL1; huS15B1) VH: QVQLVQSGAEVKKPGASVKVSCKASGYAFSSSWMNWVRQAPGQGLEWIGRIYPGHGETNYNGKFKDRVTMTADTSTSTVYMELSSLRSEDTAVYFCARVDNSDPYYFDYWGQGTTVTVSS VL: DIVLTQSPASLAVSPGQRATITCRASKSVSTSGYSYMHWYQQKPGQPPKLLIYLASNLESGVPARFSGSGSGTDFTLTINPVEAEDTANYYCQHGRELPFTFGGGTKLEIK | 125 pM | 0.000473 s⁻¹ | 3.8e+06 M⁻¹ s⁻¹ |  |  |  | 
